Test results as given in paper PMC4845099.

System: Cc1cc(=O)oc2cc(NC(=O)CNC(=O)CNC(=O)[C@H](CCCNC(=N)N)NC(=O)[C@H](CC(C)C)NC(=O)[C@H](CCCNC(=N)N)NC(=O)OCc3ccccc3)ccc12
Test: purified protein, by the assay type
Settings: pH 7.5

Substance MERS-PLpro (Betacoronavirus England 1) has a Km of 142 µM and a kcat/Km of 18000 M⁻¹ s⁻¹.
